Biological target: (4C/A)-huIL-18 (human, UniProt Q14116 37-193)
Assay: cell-based or functional assay

B1: IL-18BP-Fc (Fc fusion, UniProt O95998 31-194, looked up, not shown: a dimerising Fc or GST)
chain: TPVSQTTTAATASVRSTKDPCPSQPPVFPAAKQCPALEVTWPEVEVPLNGTLSLSCVACSRFPNFSILYWLGNGSFIEHLPGRLWEGSTSRERGSTGTQLCKALVLEQLTPALHSTNFSCVLVDPEQVVQRHVVLAQLWAGLRATLPPTQEALPSSHSSPQQQG
KG-1 neutralization potency in vitro (IC50, nM): 0.03 nM
